Measured values as given in patent publication US20160136234A1.

Legend:
Test in all cases: cell-based or functional assay
HIPK1 (h) (human) = HIPK1 (h) (human) (UniProt Q86Z02)
Haspin (h) (human) = biological target: T1, Haspin (h) (human) (UniProt Q8TF76)
T1 sequence (looked up): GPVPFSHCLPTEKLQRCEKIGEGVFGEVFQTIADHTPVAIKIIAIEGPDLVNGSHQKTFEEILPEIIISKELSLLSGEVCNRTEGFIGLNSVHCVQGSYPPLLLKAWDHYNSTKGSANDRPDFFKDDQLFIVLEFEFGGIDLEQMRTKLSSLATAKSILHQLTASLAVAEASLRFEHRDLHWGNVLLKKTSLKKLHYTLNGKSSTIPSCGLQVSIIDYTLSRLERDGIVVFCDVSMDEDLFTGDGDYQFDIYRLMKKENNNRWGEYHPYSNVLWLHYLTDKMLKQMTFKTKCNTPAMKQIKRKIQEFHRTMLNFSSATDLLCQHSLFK

[1] = biological target: T2, Tec (h) activated (human) (UniProt P42680)
T2 sequence (looked up): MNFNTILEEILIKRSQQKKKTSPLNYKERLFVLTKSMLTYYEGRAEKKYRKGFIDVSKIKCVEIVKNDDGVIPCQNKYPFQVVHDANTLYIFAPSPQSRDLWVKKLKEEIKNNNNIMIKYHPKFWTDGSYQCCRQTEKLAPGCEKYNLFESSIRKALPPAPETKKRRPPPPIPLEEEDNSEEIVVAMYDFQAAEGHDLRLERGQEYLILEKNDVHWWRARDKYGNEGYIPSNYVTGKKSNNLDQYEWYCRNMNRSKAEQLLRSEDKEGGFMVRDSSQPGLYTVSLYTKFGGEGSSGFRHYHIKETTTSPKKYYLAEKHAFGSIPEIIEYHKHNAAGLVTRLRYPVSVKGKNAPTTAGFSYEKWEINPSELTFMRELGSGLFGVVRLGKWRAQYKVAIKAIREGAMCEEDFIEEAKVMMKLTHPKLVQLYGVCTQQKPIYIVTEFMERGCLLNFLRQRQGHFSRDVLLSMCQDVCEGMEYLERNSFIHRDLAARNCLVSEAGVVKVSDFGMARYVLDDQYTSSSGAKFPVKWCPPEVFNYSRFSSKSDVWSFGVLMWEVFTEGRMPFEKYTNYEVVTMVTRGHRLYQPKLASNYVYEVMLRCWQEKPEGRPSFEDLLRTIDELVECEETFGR

SAPK2b (h) (human) = SAPK2b (h) (human) (UniProt Q15759)
Sequence of SAPK2b (h) (human) (Q15759 whole entry): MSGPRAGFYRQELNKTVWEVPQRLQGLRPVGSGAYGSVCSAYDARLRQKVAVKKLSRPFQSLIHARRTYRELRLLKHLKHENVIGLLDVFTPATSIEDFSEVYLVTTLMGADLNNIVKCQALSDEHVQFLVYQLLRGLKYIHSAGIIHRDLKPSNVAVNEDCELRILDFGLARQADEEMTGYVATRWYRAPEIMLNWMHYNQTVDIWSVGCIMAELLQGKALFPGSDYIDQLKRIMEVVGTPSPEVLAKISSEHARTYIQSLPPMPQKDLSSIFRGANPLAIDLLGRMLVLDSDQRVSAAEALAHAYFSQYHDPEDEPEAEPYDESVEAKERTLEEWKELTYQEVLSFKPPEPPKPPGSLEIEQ

[2] = biological target: SAPK2a(T106M) (h) (human) (UniProt Q16539)
Sequence of SAPK2a(T106M) (h) (human) (Q16539 whole entry T106M): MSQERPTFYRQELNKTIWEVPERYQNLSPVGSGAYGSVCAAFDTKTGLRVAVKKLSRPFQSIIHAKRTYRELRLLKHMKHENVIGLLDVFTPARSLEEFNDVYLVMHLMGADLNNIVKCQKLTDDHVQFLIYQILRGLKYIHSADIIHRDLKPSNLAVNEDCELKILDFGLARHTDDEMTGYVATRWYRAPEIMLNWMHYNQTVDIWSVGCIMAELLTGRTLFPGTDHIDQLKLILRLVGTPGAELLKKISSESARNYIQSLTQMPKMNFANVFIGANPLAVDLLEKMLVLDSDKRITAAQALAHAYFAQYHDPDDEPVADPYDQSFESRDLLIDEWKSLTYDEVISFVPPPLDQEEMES

Mer (h) (human) = biological target: T3, Mer (h) (human) (UniProt Q12866)
T3 sequence (looked up): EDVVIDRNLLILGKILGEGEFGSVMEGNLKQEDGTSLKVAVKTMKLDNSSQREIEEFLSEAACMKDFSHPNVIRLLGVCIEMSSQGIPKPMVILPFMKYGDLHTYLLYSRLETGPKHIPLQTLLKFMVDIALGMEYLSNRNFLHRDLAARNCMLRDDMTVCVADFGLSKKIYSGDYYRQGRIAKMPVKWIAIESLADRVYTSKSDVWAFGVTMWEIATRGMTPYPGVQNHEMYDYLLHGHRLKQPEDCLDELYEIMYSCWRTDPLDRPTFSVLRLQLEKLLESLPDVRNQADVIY

WNK3 (h) (human) = WNK3 (h) (human) (UniProt Q9BYP7)
PrKX (h) (human) = biological target: T4, PrKX (h) (human) (UniProt P51817)
T4 sequence (looked up): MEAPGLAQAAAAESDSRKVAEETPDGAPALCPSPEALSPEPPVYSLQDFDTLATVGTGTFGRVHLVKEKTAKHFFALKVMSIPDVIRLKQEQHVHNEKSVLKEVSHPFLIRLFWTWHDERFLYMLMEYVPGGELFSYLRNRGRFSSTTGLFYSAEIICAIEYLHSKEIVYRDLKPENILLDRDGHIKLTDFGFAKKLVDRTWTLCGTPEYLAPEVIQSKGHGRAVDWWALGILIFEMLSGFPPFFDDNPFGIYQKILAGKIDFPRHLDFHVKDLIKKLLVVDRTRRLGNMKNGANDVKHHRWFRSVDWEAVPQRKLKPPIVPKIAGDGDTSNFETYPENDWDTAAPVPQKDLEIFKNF

CDK5/p35 (h) (human) = CDK5/p35 (h) (human) (UniProt Q00535)
PRK2 (h) (human) = PRK2 (h) (human) (UniProt Q16513)
PKCτ (h) (human) = biological target: PKCτ (h) (human)
IKKβ (h) (human) = biological target: T5, IKKβ (h) (human) (UniProt O14920)
T5 sequence (looked up): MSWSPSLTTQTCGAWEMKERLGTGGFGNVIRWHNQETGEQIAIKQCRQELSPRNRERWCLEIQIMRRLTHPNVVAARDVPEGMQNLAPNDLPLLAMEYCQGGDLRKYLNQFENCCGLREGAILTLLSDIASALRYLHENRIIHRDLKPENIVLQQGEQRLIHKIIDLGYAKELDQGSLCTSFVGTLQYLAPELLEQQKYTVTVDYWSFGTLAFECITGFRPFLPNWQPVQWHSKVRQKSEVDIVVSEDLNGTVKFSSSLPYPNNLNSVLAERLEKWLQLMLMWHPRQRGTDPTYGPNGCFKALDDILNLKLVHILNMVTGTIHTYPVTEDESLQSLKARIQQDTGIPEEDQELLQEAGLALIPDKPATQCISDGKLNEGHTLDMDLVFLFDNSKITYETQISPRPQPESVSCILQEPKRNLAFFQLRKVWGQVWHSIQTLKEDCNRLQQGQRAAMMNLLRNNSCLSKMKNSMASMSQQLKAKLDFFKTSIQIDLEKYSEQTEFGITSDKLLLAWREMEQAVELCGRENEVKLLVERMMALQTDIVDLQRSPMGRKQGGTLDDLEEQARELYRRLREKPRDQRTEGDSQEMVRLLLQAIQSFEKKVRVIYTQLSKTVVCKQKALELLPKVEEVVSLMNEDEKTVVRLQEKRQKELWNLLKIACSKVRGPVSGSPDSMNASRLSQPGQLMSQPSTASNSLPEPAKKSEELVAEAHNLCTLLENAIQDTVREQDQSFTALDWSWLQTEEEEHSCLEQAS

AMPKα1 (h) (human) = AMPKα1 (h) (human) (UniProt Q13131)
CaMKIIβ (h) (human) = CaMKIIβ (h) (human) (UniProt Q13554)
Sequence of CaMKIIβ (h) (human) (Q13554 whole entry): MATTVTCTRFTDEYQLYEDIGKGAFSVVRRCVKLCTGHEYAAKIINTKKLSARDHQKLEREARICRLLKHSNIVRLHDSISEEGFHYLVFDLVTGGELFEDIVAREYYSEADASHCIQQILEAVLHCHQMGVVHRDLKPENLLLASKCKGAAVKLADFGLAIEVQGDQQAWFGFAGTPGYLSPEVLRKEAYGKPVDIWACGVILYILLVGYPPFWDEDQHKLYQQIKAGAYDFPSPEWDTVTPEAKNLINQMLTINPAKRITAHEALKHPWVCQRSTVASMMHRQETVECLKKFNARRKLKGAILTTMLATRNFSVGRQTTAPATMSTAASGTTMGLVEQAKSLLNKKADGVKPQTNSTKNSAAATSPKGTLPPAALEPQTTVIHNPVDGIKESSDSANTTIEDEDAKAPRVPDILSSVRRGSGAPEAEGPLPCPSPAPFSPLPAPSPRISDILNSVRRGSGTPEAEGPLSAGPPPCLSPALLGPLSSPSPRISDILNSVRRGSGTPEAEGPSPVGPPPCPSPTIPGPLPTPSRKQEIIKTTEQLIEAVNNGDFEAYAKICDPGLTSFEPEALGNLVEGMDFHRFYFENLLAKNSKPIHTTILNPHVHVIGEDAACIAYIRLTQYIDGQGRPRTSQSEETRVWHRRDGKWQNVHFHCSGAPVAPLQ

JNK3 (h) (human) = JNK3 (h) (human) (UniProt P53779)
Src(T341M) (h) (human) = Src(T341M) (h) (human) (UniProt P12931)

- % activity at 100 µM (HIPK1 (h) (human)): 74%
- % activity at 100 µM (Haspin (h) (human)): 48%
- % activity at 100 µM [1]: 56%
- % activity at 100 µM (SAPK2b (h) (human)): 81%
- % activity at 100 µM [2]: 97%
- % activity at 100 µM (Mer (h) (human)): 52%
- % activity at 100 µM (WNK3 (h) (human)): 77%
- % activity at 100 µM (PrKX (h) (human)): 61%
- % activity at 100 µM (CDK5/p35 (h) (human)): 79%
- % activity at 100 µM (PRK2 (h) (human)): 33%
- % activity at 100 µM (PKCτ (h) (human)): 68%
- % activity at 100 µM (IKKβ (h) (human)): 84%
- % activity at 100 µM (AMPKα1 (h) (human)): 71%
- % activity at 100 µM (CaMKIIβ (h) (human)): 2%
- % activity at 100 µM (JNK3 (h) (human)): 89%
- % activity at 100 µM (Src(T341M) (h) (human)): 70%
Substance: MMI-0300 (peptide)
